Article PMC11559089

What was measured:
[1] = molecular target: full-length HIV-1 integrase Y99H/A128T (HIV-1); test: SEC; Superdex 200 10/300 GL; 20 µM IN; 20 mM HEPES pH 7.5, 1 M NaCl, 10% glycerol, 5 mM BME; 0.3 mL/min; incubated 1 h at 4°C; size by protein standards; no inhibitor
[2] = molecular target: full-length WT HIV-1 integrase (IN) (HIV-1); test: as above

Substance	stoichiometry N [1]	stoichiometry N [2]
full-length HIV-1 integrase Y99H/A128T (enzyme)	4	–
full-length WT HIV-1 integrase (IN) (enzyme)	–	4
